The text below walks through data of patent publication US20240294622A1 (SUZHOU TRANSCENTA THERAPEUTICS, published 2024).

As usually defined, the EC50 is the concentration at which the effect is half-maximal. The low end stands for a more potent agent, the high end for a less potent agent. For orientation: IC50 means the concentration needed to halve the response being measured. The low end stands for greater potency, the high end for weaker potency.

Test [1] has as its target T1, HGREM1-His (ACRO) (human, UniProt O60565 25-184).
T1 construct: Lys25-Asp184 of NP_037504 with C-terminal polyhistidine tag (ACRO GR1-H52H3); they are put here; also called hGREM1 (ACRO); human gremlin (ACRO)
T1 sequence: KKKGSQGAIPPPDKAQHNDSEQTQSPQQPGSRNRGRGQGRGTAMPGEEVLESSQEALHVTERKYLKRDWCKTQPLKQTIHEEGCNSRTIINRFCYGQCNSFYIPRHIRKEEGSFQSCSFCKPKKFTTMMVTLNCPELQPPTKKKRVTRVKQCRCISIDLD
In words: ELISA, coated hGREM1 (ACRO). The procedure:
(§1) Clear polystyrene plates (BEAVER) were coated with 100 μl/well of a […] hGREM1 (ACRO) and mouse gremlin (R&D) in high pH coating buffer overnight at 4° C. Then the plates were washed once on an automatic plate washer using PBS+0.1% Tween 20 (Sigma). 100 μl of block solution consisting of PBS+1% BSA+1% normal goat serum+0.5% Tween 20 (Sigma) was added to each well and incubated at room temperature for 2 hours. Then 100 μl of antibodies in antibody dilution buffer containing PBS+1% BSA+1% normal goat serum+0.01% Tween 20 starting from 2 μg/ml and then serial dilutions were added to each well of the plate and incubated for 1 hours at room temperature. Afterward the plates were washed three times with 200 μl of PBS+0.1% Tween20 followed by adding 100 μl/well 1:10000 Goat anti mouse IgG-HRP (abcam), and incubate for 1 hour at room temperature. They were then washed 3× with PBS+0.1% Tween20. Finally, 100 µl/well of TMB (Pierce) was added to each well and after several minutes add 50 μl of stop solution to each well. The plates were read on a Multiscan FC microplate reader (Thermo Scientific) at […].
A general note: ELISA stands for enzyme-linked immunosorbent assay.

In test [2] the target is T2, Mouse Gremlin-His (R&D) (mouse, UniProt O70326 25-184).
T2 construct: Lys25-Asp184 with 10xHis, R&D 956-GR; also called mouse gremlin (R&D); mGREM1
T2 sequence: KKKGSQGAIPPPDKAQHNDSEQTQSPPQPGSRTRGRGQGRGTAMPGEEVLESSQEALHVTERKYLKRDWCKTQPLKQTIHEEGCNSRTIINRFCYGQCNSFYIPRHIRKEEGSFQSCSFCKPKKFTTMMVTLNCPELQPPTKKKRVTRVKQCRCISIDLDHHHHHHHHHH
In words: ELISA, coated mouse gremlin (R&D). The protocol: as §1

For the next test, the target named is T3, XM5-Fc (human (hGREM1 with residues 123-143 …)).
T3 construct: also called gremlin 1-DAN fusion protein
T3 chain: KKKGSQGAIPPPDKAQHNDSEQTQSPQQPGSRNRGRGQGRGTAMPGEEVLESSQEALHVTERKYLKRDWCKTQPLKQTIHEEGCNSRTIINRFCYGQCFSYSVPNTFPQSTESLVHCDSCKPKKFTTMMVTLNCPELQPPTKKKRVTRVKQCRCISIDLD
In words: ELISA on coated XM5-Fc (column XM5). The procedure:
(§2) Binding affinities to hGREM1 and XM5 were also compared. Briefly, XM5-Fc or Gremlin-his […] was coated. 100 μl of block solution consisting of PBS+1% BSA+1% normal goat serum+0.5% Tween 20 (Sigma) was added to each well and incubated at room temperature for 2 hours. 4-fold serial antibody dilution from 2 μg/ml were added. Afterward the plates were washed three times with 200 ul of PBS+0.1% Tween20 followed by adding 100 μl/well 1:10000 Goat anti mouse IgG-HRP (abeam), and incubate for 1 hour at room temperature. They were then washed 3× with PBS+0.1% Tween20. Finally, 100 μl/well of TMB (InnoReagents) was added to each well and after 2 minutes add 50 ul of stop solution to each well. The plates were read on a Multiscan FC microplate reader (Thermo Scientific) at […]. The EC50 values were show in table below.

The target of test [3] is T1, HGREM1-His (ACRO). In words: competition ELISA, Gremlin-his binding to coated BMP7.
The target in test [4] is T1, HGREM1-His (ACRO). In words: ELISA on coated Gremlin-his (column Gremlin). The procedure:
as §2

The target in test [5] is T1, HGREM1-His (ACRO). As to the kind of experiment: blocking ELISA, Human Gremlin-1 binding to FGFR1. The protocol:
Next, 0.25 μg/ml of gremlin was selected to test the blocking activity. The ability of antibodies to block Gremlin binding to human FGFR1-Fc was examined via ELISA. Plates were coated with recombinant FGFR1-Fc (2 μg/ml) overnight and then serial dilutions of antibodies were incubated with 0.25 μg/ml of human Gremlin-his modified for 1 h at RT before this complex was added to coated plates and allowed to incubate for an additional hour at RT. The plates were then washed and added with anti-his HRP (GenScript). Plates were then developed with a TMB solution and stopped by adding stop solution. The plates were read on a plate reader at 450 nm. […] Humanized anti-GREM1 antibodies provided herein (e.g., Hu14E3, Hu22F1) are expected to show the similar technical effect as their chimeric counterparts in blocking the binding of hGREM1 to FGFR1.

In test [6] the target is T1, HGREM1-His (ACRO). In words: blocking ELISA, Human Gremlin-1 binding to BMP2; column OD450. The procedure: (§3) In addition, the ability of serial dilutions of antibodies provided herein to block Gremlin binding to human BMP2/4/7 was also examined via ELISA. Plates were coated with recombinant human BMP2/4/7 (0.5 μg/ml) overnight and then serial dilutions of antibodies were incubated with 1 μg/ml of human Gremlin-his modified for 1 h at RT before this complex was added to coated plates and allowed to incubate for an additional hour at RT. The plates were then washed and added with anti-his HRP (GenScript). Plates were then developed with a TMB solution and stopped by adding stop solution. The plates were read on a plate reader at 450 nm. […] The chimeric anti-gremlin 1 antibodies (69H5-chi) and chimeric anti-gremlin 1 antibodies (22F1-chi) also can inhibit the binding of gremlin to BMP2 and BMP4 (see, FIG. 3E and FIG. 3F). The chimeric anti-gremlin 1 antibodies (56C11-chi) can inhibit the binding of gremlin to BMP2 (see, FIG. 3E).

For test [7], the target named is T1, HGREM1-His (ACRO). As to the kind of experiment: blocking ELISA, Human Gremlin-1 binding to BMP4; column OD450. The procedure:
as §3

In test [8] the target is T1, HGREM1-His (ACRO). In words: blocking ELISA, Human Gremlin-1 binding to BMP7; column OD450. The protocol:
as §3

The target in test [9] is T1, HGREM1-His (ACRO). As to the kind of experiment: blocking ELISA, Human Gremlin-1 binding to BMP2; column Percentage. The protocol:
as §3

Test [10] concerns the target T1, HGREM1-His (ACRO). In words: blocking ELISA, Human Gremlin-1 binding to BMP4; column Percentage. The procedure:
as §3

In test [11] the target is T1, HGREM1-His (ACRO). As to the kind of experiment: blocking ELISA, Human Gremlin-1 binding to BMP7; column Percentage. The protocol:
as §3

The target in test [12] is T4, hGREM1 (source and construct not stated) (human, UniProt O60565 25-184).
T4 construct: also called Gremlin; gremlin
T4 sequence: T1 sequence
As to the kind of experiment: ELISA on hGREM1.

Another test has as its target T5, DAN-his (Sinobiological) (human, UniProt P41271 17-181, limits assumed).
T5 construct: also called DAN (Sinobiological); human DAN-his
T5 sequence (looked up): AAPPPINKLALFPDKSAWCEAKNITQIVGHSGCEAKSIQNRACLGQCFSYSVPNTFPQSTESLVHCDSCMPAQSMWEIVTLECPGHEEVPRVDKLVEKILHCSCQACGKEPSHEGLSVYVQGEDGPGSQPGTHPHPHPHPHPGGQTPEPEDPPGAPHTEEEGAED
As to the kind of experiment: ELISA on coated DAN-his; unit from the axis Ab(nM); panel called FIG. 19C in the text. The procedure:
(§4) Clear polystyrene plates (BEAVER) were coated with 100 μl/well of a 0.5 μg/ml human gremlin (ACRO) and DAN (Sinobiological) in high pH coating buffer overnight at 4° C. Then the plates were washed once on an automatic plate washer using PBS+0.1% Tween 20 (Sigma). 100 μl of block solution consisting of PBS+1% BSA+1% normal goat serum+0.5% Tween 20 (Sigma) was added to each well and incubated at room temperature for 2 hours. Then 100 ul of antibodies (hybridoma or chimeric antibody 36F5, chimeric antibody 67G11, chimeric antibody 42B9) in antibody dilution buffer containing PBS+1% BSA+1% normal goat serum+0.01% Tween 20 starting from 2 μg/ml (13.33 nM) and then 4 fold serial dilution were added to each well of the plate and incubated for 1 hours at room temperature. Afterward the plates were washed three times with 200 ul of PBS+0.1% Tween20 followed by adding 100 μl/well 1:10000 Goat anti mouse IgG-HRP or mouse anti-human IgG-HRP (abcam), and incubate for 1 hour at room temperature. They were then washed 3× with PBS+0.1% Tween20. Finally, 100 μl/well of TMB (InnoReagents) was added to each well and after 2 minutes add 50 ul of stop solution to each well. The plates were read on a Multiscan FC microplate reader (Thermo Scientific) at 450 nm.

Test [13] concerns the target T1, HGREM1-His (ACRO). In words: ELISA on coated human Gremlin-his; unit from the axis Ab(nM); panel called FIG. 19C in the text. The procedure:
as §4

For test [14], the target named is T2, Mouse Gremlin-His (R&D). As to the kind of experiment: ELISA on coated Mouse Gremlin-his, anti-mouse IgG-HRP. The procedure:
as §1

Positions count from the first letter of the chain named.

B1: 67G11 (antibody, V domains shown)
VH: QVQLQQSGAELARPGASVKLSCKASGYTFTSYGIGWVKQRTGQGLEWIGEIYPRSGNTYNNEKFKGKATLTADKSSRTVYMELRSLISEDSAVYFCAREGYSNNYYAMDYWGQGTSVTVFS
VL: DVLMTQTPLSLPVSLGDQASISCRSSQSLVHSNGNTYLEWYLQKPGQSPKLLIYKVSNRFSGVPDRLSGSGSGTDFTLKISRVEAEDLGVYYCFQGSHVPFTFGSGTKLEIK
notes: mouse hybridoma antibody; also called hybridoma 67G11
For B1, the EC50 with HGREM1-His (ACRO) [1] came to 0.00784 µg/mL; with Mouse Gremlin-His (R&D) [2] it was 0.00771 µg/mL; in the test with XM5-Fc, 0.00665 µg/mL; with HGREM1-His (ACRO) [4], 0.0126 µg/mL. The same molecule displayed a maximal blocking percentage in the test with HGREM1-His (ACRO) [3] of no less than 50%. The concentration for half-maximal inhibition (IC50) with HGREM1-His (ACRO) [5] is 2.41 µg/mL; with HGREM1-His (ACRO) [6], 0.547 µg/mL; with HGREM1-His (ACRO) [7] it was 0.367 µg/mL; with HGREM1-His (ACRO) [8], 0.848 µg/mL; in the test with HGREM1-His (ACRO) [9] it was 0.548 µg/mL; in the test with HGREM1-His (ACRO) [10], 0.367 µg/mL. Moreover, in the test with HGREM1-His (ACRO) [11], the IC50 was 0.848 µg/mL.

B2: 56C11-C (chimeric antibody of 56C11) (antibody, human IgG1, V domains shown)
VH: EVQLQQSGPELVKPGASVKISCKASGYTFTDFYMNWVKQSHGKSLEWIGDINPNNGGTSYNQKFKGKATLTVDKSSSTAYMELRSLTSEDSAVYYCARDPIYYDYDEVAYWGQGTLVTVSA
VL: B1 VL with L3V, E39H, L67F, Y92F, F94S, G96S, S97T, F101L, S105A, I111L
notes: also called 56C11-chi
On to B2, for which, in test [12], the concentration giving a half-maximal response (EC50) stood at 0.00489 µg/mL.

B3: 42B9 (antibody, V domains shown)
VH: B1 VH
VL: B1 VL with R24I, Q47L, K79R
notes: mouse hybridoma antibody; also called hybridoma 42B9
Regarding B3, the EC50 with HGREM1-His (ACRO) [1] was 0.00806 µg/mL; in the test with Mouse Gremlin-His (R&D) [2] it was 0.00851 µg/mL; with XM5-Fc, 0.00712 µg/mL; in the test with HGREM1-His (ACRO) [4], 0.0134 µg/mL. Further, the maximal blocking percentage with HGREM1-His (ACRO) [3] was no less than 50%. In addition, the half-maximal inhibitory concentration (IC50) came out at 2.79 µg/mL with HGREM1-His (ACRO) [5]; 0.752 µg/mL with HGREM1-His (ACRO) [6]; 0.397 µg/mL in the test with HGREM1-His (ACRO) [7]; 0.916 µg/mL in the test with HGREM1-His (ACRO) [8]; 0.752 µg/mL in the test with HGREM1-His (ACRO) [9]; 0.396 µg/mL with HGREM1-His (ACRO) [10]. In addition, in the test with HGREM1-His (ACRO) [11], the half-maximal inhibitory concentration (IC50) was 0.928 µg/mL.

B4: chimeric antibody 67G11 (antibody, human IgG1, V domains shown)
VH: B1 VH
VL: B1 VL
As to B4, the concentration for a half-maximal effect (EC50) with DAN-his (Sinobiological) was 0.0178 nM; with HGREM1-His (ACRO) [13], 0.019 nM.

B5: chimeric antibody 42B9 (antibody, human IgG1, V domains shown)
VH: B1 VH
VL: B1 VL with R24I, Q47L, K79R
With B5, the EC50 is 0.0203 nM in the test with DAN-his (Sinobiological) and 0.0209 nM in the test with HGREM1-His (ACRO) [13].

B6: 69H5 (antibody, V domains shown)
VH: EVQLQQSGAELVRPGASVKLSCTASGFNIKDDYMHWVKRRPEQGLEWIGWIDPENGDTEYASKFQGKATITADTSSNTAYLQLSSLTSEDTAVYYCTTWATVPDFDYWGQGTTLTVSS
VL: DIVMTQSPSSLAMSVGQKVTMSCKSSQSLLNRSNQKNYLAWYQQKPGQSPKLLVHFTSTRESGVPDRFIGSGSGTDFTLTISNLQAEDLADYFCQQHYSTPFTFGSGTKLEIK
notes: mouse hybridoma antibody; also called hybridoma 69H5
For the molecule B6, in the test with HGREM1-His (ACRO) [1], the EC50 was 0.106 µg/mL. In the test with Mouse Gremlin-His (R&D) [14], the binding result is reported as “no binding”.
